# Measurements reported in the Immune Epitope Database (IEDB).
# pKd: −log10 of the molar value.
# Key:
# [1] = molecular target: HLA-B*44:03; assay: IEDB peptide-MHC binding, purified MHC/competitive/radioactivity; filed as Kd, often an IC50 or EC50 that approximates it; ≥ and ≤ were set here for values at or beyond the usual limits of such assays
# [2] = molecular target: HLA-B*40:01; assay: as above
# [3] = molecular target: HLA-B*44:02; assay: as above
# [4] = molecular target: HLA-A*02:01; assay: IEDB peptide-MHC binding, purified MHC/competitive/fluorescence; filed as Kd, often an IC50 or EC50 that approximates it; ≥ and ≤ were set here for values at or beyond the usual limits of such assays
# [5] = molecular target: HLA-A*01:01; assay: IEDB peptide-MHC binding, purified MHC/competitive/radioactivity; filed as Kd, often an IC50 or EC50 that approximates it; ≥ and ≤ were set here for values at or beyond the usual limits of such assays
# [6] = molecular target: HLA-A*33:01; assay: as above; conditions: source organism: SARS coronavirus Tor2
# [7] = molecular target: HLA-A*23:01; assay: as above
# [8] = molecular target: HLA-A*31:01; assay: as above; conditions: source organism: SARS coronavirus Tor2
# [9] = molecular target: HLA-A*11:01; assay: as above; conditions: source organism: SARS coronavirus Tor2
# [10] = molecular target: HLA-A*68:01; assay: as above; conditions: source organism: SARS coronavirus Tor2
# [11] = molecular target: HLA-A*26:01; assay: as above
# [12] = molecular target: HLA-A*30:02; assay: as above
# [13] = molecular target: HLA-A*29:02; assay: as above
# [14] = molecular target: HLA-A*24:02; assay: as above
# [15] = molecular target: HLA-A*03:01; assay: as above; conditions: source organism: SARS coronavirus Tor2
# [16] = molecular target: HLA-B*08:01; assay: as above
# [17] = molecular target: HLA-B*57:01; assay: IEDB peptide-MHC binding, purified MHC/direct/fluorescence; filed as Kd, often an IC50 or EC50 that approximates it; ≥ and ≤ were set here for values at or beyond the usual limits of such assays; conditions: source organism: Bacillus anthracis str. A0488
# [18] = molecular target: HLA-B*58:01; assay: as above
# [19] = molecular target: HLA-B*15:01; assay: as above; conditions: source organism: SARS-CoV1
# [20] = molecular target: HLA-A*01:01; assay: as above; conditions: source organism: SARS-CoV1
# [21] = molecular target: HLA-A*11:01; assay: as above; conditions: source organism: SARS-CoV1
# [22] = molecular target: HLA-A*02:03; assay: IEDB peptide-MHC binding, purified MHC/competitive/radioactivity; filed as Kd, often an IC50 or EC50 that approximates it; ≥ and ≤ were set here for values at or beyond the usual limits of such assays; conditions: source organism: Dengue virus 4 Philippines/H241/1956
# [23] = molecular target: HLA-B*53:01; assay: as above; conditions: source organism: Dengue virus 3 Martinique/1243/1999
# [24] = source organism: Dengue virus 3 Martinique/1243/1999
# [25] = source organism: SARS coronavirus Tor2
# [26] = source organism: Mammarenavirus lassaense
# [27] = source organism: Vaccinia virus WR
# [28] = source organism: Mammarenavirus tacaribeense
# [29] = source organism: Mammarenavirus guanaritoense
# [30] = source organism: Mammarenavirus juninense
# [31] = source organism: Dengue virus 3 Singapore/8120/1995
# [32] = source organism: Vaccinia virus Copenhagen
# [33] = source organism: Mammarenavirus machupoense
# [34] = source organism: Dengue virus 2 Jamaica/1409/1983
# [35] = source organism: Dengue virus 1 Brazil/97-11/1997
# [36] = source organism: Mammarenavirus brazilense
# [37] = source organism: Dengue virus 4 Philippines/H241/1956
# [38] = source organism: Dengue virus 2 16681-PDK53
sequence,measurement,setting,value
AETQNSSFII,pKd,[1]; [24],7.46
same,pKd,[2]; [24],7.64
same,pKd,[3]; [24],7.20
AIVGGLAEL,pKd,[4]; source organism: Japanese encephalitis virus,7.92
ALSSDGDTV,pKd,[4]; source organism: Vaccinia virus Tian Tan,8.02
AMDEFIQRY,pKd,[5]; [25],7.19
same,pKd,[6],≤ 4.11
same,pKd,[7]; [25],≤ 4.70
same,pKd,[8],≤ 4.11
same,pKd,[9],5.49
same,pKd,[10],≤ 4.11
same,pKd,[11]; [25],≤ 4.08
same,pKd,[12]; [25],5.86
same,pKd,[13]; [25],6.05
same,pKd,[14]; [25],5.10
same,pKd,[15],5.79
CFISVNDRLV,pKd,[5]; [26],4.74
same,pKd,[7]; [26],6.45
same,pKd,[11]; [26],≤ 4.16
same,pKd,[12]; [26],6.24
same,pKd,[13]; [26],5.28
same,pKd,[14]; [26],4.94
CPRRYLHRL,pKd,[16]; [27],8.58
CWFADKNLI,pKd,[7]; [28],6.56
same,pKd,[13]; [28],5.50
same,pKd,[14]; [28],6.29
CYSKSLRDLV,pKd,[5]; [29],4.90
same,pKd,[7]; [29],5.51
same,pKd,[11]; [29],≤ 4.16
same,pKd,[12]; [29],≤ 4.16
same,pKd,[13]; [29],≤ 4.37
same,pKd,[14]; [29],6.28
DWVVERVRWL,pKd,[7]; [30],≤ 4.28
same,pKd,[13]; [30],≤ 4.15
same,pKd,[14]; [30],≤ 4.31
EEEMFKKRNL,pKd,[1]; [24],6.09
same,pKd,[2]; [24],≤ 4.19
same,pKd,[3]; [24],7.05
EEHSSTWHY,pKd,[1]; [31],7.39
same,pKd,[3]; [31],7.75
ENMLRSMPV,pKd,[16]; [27],9.67
EYISDAFSL,pKd,[5]; [25],≤ 4.42
same,pKd,[7]; [25],≤ 4.19
same,pKd,[11]; [25],≤ 4.11
same,pKd,[12]; [25],≤ 4.09
same,pKd,[13]; [25],≤ 4.05
same,pKd,[14]; [25],≤ 4.04
EYKLQQGTF,pKd,[5]; [25],≤ 4.11
same,pKd,[7]; [25],≤ 4.45
same,pKd,[11]; [25],≤ 4.11
same,pKd,[12]; [25],≤ 4.10
same,pKd,[13]; [25],≤ 4.50
same,pKd,[14]; [25],4.95
EYQKTKLNDW,pKd,[7]; [24],4.97
same,pKd,[14]; [24],4.99
FGDSEEPVTY,pKd,[5]; [32],6.08
same,pKd,[7]; [32],5.83
same,pKd,[11]; [32],≤ 4.16
same,pKd,[12]; [32],4.88
same,pKd,[13]; [32],4.89
same,pKd,[14]; [32],≤ 4.15
FNAPALQEAY,pKd,[5]; [25],6.55
same,pKd,[7]; [25],≤ 4.15
same,pKd,[11]; [25],6.28
same,pKd,[12]; [25],6.47
same,pKd,[13]; [25],7.58
same,pKd,[14]; [25],≤ 4.15
GWHDWQQVPF,pKd,[7]; [24],6.38
same,pKd,[14]; [24],6.93
HCALLDCIMY,pKd,[5]; [33],6.63
same,pKd,[7]; [33],≤ 4.15
same,pKd,[11]; [33],≤ 4.16
same,pKd,[12]; [33],5.85
same,pKd,[13]; [33],5.66
same,pKd,[14]; [33],≤ 4.15
HEEPIPMSTY,pKd,[1]; [34],6.60
same,pKd,[3]; [34],6.40
HVQRIETWIL,pKd,[16]; [34],5.76
IARQYEQEM,pKd,[17],6.29
same,pKd,[18]; source organism: Bacillus anthracis str. A0488,4.82
ILNRRRRTA,pKd,[16]; [34],6.83
IMDLEKRHVL,pKd,[16]; [34],7.38
INKRKKTSL,pKd,[16]; [24],7.74
IRFPRFTRI,pKd,[16]; [27],5.80
ITQKGIIFIL,pKd,[16]; [35],6.24
IYRILQRGLL,pKd,[16]; [35],5.59
KWKSRLNAL,pKd,[16]; [34],7.18
LFLAFVVFLL,pKd,[5]; [25],6.27
same,pKd,[7]; [25],6.07
same,pKd,[11]; [25],6.60
same,pKd,[12]; [25],5.70
same,pKd,[13]; [25],6.10
same,pKd,[14]; [25],4.93
LFQLIFFLTL,pKd,[7]; [36],5.04
same,pKd,[13]; [36],6.17
same,pKd,[14]; [36],≤ 4.27
LIAIAVASGL,pKd,[16]; [37],4.93
LKDGPERVIL,pKd,[16]; [35],5.60
LLRKHTLKI,pKd,[16]; [27],7.68
LNGRKRSTI,pKd,[16]; source organism: Dengue virus 4 Dominica/814669/1981,6.87
LNGRKRSTM,pKd,[16]; [37],7.00
MFLARAIVF,pKd,[5]; [25],≤ 4.11
same,pKd,[7]; [25],4.71
same,pKd,[11]; [25],≤ 4.47
same,pKd,[12]; [25],4.78
same,pKd,[13]; [25],5.07
same,pKd,[14]; [25],≤ 4.11
NEAIMAVGM,pKd,[1]; [34],6.65
same,pKd,[3]; [34],7.07
NKAWLVHRQW,pKd,[1]; [38],5.39
same,pKd,[3]; [38],5.94
REAVEDSRFW,pKd,[1]; [34],6.90
same,pKd,[3]; [34],7.10
RLSFKELLVY,pKd,[5]; [25],6.62
same,pKd,[7]; [25],4.83
same,pKd,[11]; [25],5.00
same,pKd,[12]; [25],6.65
same,pKd,[13]; [25],7.06
same,pKd,[14]; [25],4.80
SAKTKISVE,pKd,[16]; [27],6.62
SASKSASVY,pKd,[5]; [25],≤ 4.61
same,pKd,[7]; [25],≤ 4.11
same,pKd,[11]; [25],≤ 4.68
same,pKd,[12]; [25],6.41
same,pKd,[13]; [25],5.30
same,pKd,[14]; [25],≤ 4.11
SENEVKLTIM,pKd,[1]; [34],6.42
same,pKd,[2]; [34],6.01
same,pKd,[3]; [34],7.63
SEVCDHRLM,pKd,[1]; [37],7.12
same,pKd,[2]; [37],6.52
same,pKd,[3]; [37],7.59
SKRMRVDII,pKd,[16]; [27],5.08
SLEFIRRSL,pKd,[16]; [27],5.91
SMAMRCVGI,pKd,[16]; [35],8.23
SMKSVQNNTV,pKd,[5]; [29],≤ 4.15
same,pKd,[7]; [29],≤ 4.15
same,pKd,[11]; [29],≤ 4.16
same,pKd,[12]; [29],5.53
same,pKd,[13]; [29],≤ 4.27
same,pKd,[14]; [29],≤ 4.15
SQILLMRTTW,pKd,[1]; [35],6.49
same,pKd,[3]; [35],6.44
SRSTSLSVSL,pKd,[16]; [34],6.25
SSLPSYAAY,pKd,[7]; [25],≤ 4.11
same,pKd,[11]; [25],5.30
same,pKd,[12]; [25],9.57
same,pKd,[13]; [25],8.83
same,pKd,[14]; [25],≤ 4.11
same,pKd,[19],7.28
same,pKd,[20],5.79
same,pKd,[21],6.41
same,pKd,[18]; source organism: SARS-CoV1,6.54
TEETFKLSY,pKd,[5]; [25],5.10
same,pKd,[7]; [25],≤ 4.20
same,pKd,[11]; [25],4.82
same,pKd,[12]; [25],5.44
same,pKd,[13]; [25],6.85
same,pKd,[14]; [25],≤ 4.52
VDSSQGSEY,pKd,[5]; [25],6.05
same,pKd,[7]; [25],≤ 4.11
same,pKd,[11]; [25],≤ 4.61
same,pKd,[12]; [25],5.70
same,pKd,[13]; [25],5.98
same,pKd,[14]; [25],≤ 4.11
VGEEFFHQY,pKd,[5]; [30],5.48
same,pKd,[7]; [30],6.60
same,pKd,[11]; [30],≤ 4.11
same,pKd,[12]; [30],8.17
same,pKd,[13]; [30],5.62
same,pKd,[14]; [30],5.79
VGRQEKGKSL,pKd,[16]; [34],5.50
VIEGPTTCGY,pKd,[5]; [25],6.96
same,pKd,[7]; [25],≤ 4.42
same,pKd,[11]; [25],6.04
same,pKd,[12]; [25],7.58
same,pKd,[13]; [25],6.82
same,pKd,[14]; [25],4.77
VNKFKFGAA,pKd,[16]; [27],6.80
VYRGTTTYKL,pKd,[5]; [25],5.41
same,pKd,[7]; [25],7.00
same,pKd,[11]; [25],6.00
same,pKd,[12]; [25],5.16
same,pKd,[13]; [25],6.67
same,pKd,[14]; [25],6.87
WIMKIGIGVL,pKd,[16]; [31],6.54
WLSYKVASA,pKd,[16]; [37],8.13
same,pKd,[22],7.91
YCNYTKFWY,pKd,[5]; [30],4.73
same,pKd,[7]; [30],≤ 4.65
same,pKd,[11]; [30],≤ 4.11
same,pKd,[12]; [30],6.17
same,pKd,[13]; [30],5.70
same,pKd,[14]; [30],≤ 4.11
YFMKFRRVF,pKd,[5]; [25],≤ 4.11
same,pKd,[7]; [25],≤ 4.57
same,pKd,[11]; [25],≤ 4.31
same,pKd,[12]; [25],≤ 4.66
same,pKd,[13]; [25],4.90
same,pKd,[14]; [25],≤ 4.11
YQPDTGNYIL,pKd,[7]; [36],5.76
same,pKd,[13]; [36],5.26
same,pKd,[14]; [36],5.22
YSIPATLLVW,pKd,[7]; [24],7.15
same,pKd,[23],7.22
